According to PMC10255477, “The Inhibitory Effects and Cytotoxic Activities of the Stem Extract of Nepenthes miranda against Single-Stranded DNA-Binding Protein and Oral Carcinoma Cells”:

Key:
[1] = biological target: T1, KpSSB (single-stranded DNA-binding protein) (Klebsiella pneumoniae, UniProt A6TGW7 1-174); assay: EMSA; EMSA: 40 mM Tris-HCl pH 7.5, 50 mM NaCl, 37 °C, 60 min; DNA 30 fmol/uL; 8% native PAGE in TBE; [Protein]50 by linear interpolation; details: protein: recombinant; chain copies: 4; label: 5' biotin
[2] = biological target: T1, KpSSB (single-stranded DNA-binding …); assay: EMSA; up to 5000 nM protein, no shift; EMSA: 40 mM Tris-HCl pH 7.5, 50 mM NaCl, 37 °C, 60 min; DNA 30 fmol/uL; 8% native PAGE in TBE; [Protein]50 by linear interpolation; details: protein: recombinant, chain copies: 4

T1 sequence (A6TGW7 whole entry): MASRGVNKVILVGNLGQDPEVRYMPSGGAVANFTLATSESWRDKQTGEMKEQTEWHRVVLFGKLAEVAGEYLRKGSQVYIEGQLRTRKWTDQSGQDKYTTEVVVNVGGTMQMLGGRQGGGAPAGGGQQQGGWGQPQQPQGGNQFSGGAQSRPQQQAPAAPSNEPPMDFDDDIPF

TTTTTTTTTTTTTTTTTTTTTTTTTTTTTTTTTTT (ssDNA) [dT35] was tested, and the “apparent K (half saturation)” value [1] was 117 ± 18 nM.

TTTTTTTTTTTTTTTTTTTTTTTTTTTTTT (ssDNA) [dT30] was tested, and the “apparent K (half saturation)” value [1] was 155 ± 20 nM.

B1: PS4/PS3 (dsDNA)
DNA 1: GGGTACCGAGCTATCCGAATTCGGG
DNA 2: CCCGAATTCGGATAGCTCGGTACCC
B1: no binding ([2]; blunt, 25 bp).

TTTTTTTTTTTTTTTTTTTT (ssDNA) [dT20]: no binding ([2]; label: 5' biotin).
